From the supplement of paper PMC10567573

B1: ZNF8 (parent)
chain: RIHTGERPYMCKECGKAFSQNSSL
B2: CLCN6 (parent)
chain: TGLVGLFVDFFVRLFTQLKFGVVQ

Variants of: B1
Test: protein stability index of a GFP-peptide fusion (GPS, HEK-293T) (PSI 1-6); higher = more stable
Conditions: c terminus: a fixed tail appended
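Note: lentivirally expressed fusions sorted by FACS into six bins by GFP to DsRed ratio, PSI derived from sequencing read proportions per bin multiplied by bin number.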

Variant | protein stability index
RIHTGERPYMCKECGKAFSQNSSC [L24C] | 3.17
RIHTGERPYMCKECGKAFSQNSSW [L24W] | 2.73
RIHTGERPYMCKECGKAFSQNSSM [L24M] | 2.7
RIHTGERPYMCKECGKAFSQNSSS [L24S] | 3.55
RIHTGERPYMCKECGKAFSQNSSD [L24D] | 3.56
RIHTGERPYMCKECGKAFSQNSSG [L24G] | 2.8
RIHTGERPYMCKECGKAFSQNSSH [L24H] | 3.02
RIHTGERPYMCKECGKAFSQNSSR [L24R] | 2.55
RIHTGERPYMCKECGKAFSQNSSE [L24E] | 3.68
RIHTGERPYMCKECGKAFSQNSSY [L24Y] | 2.18
RIHTGERPYMCKECGKAFSQNSST [L24T] | 3.43
RIHTGERPYMCKECGKAFSQNSSV [L24V] | 2.6
RIHTGERPYMCKECGKAFSQNSSP [L24P] | 3.18
RIHTGERPYMCKECGKAFSQNSSA [L24A] | 2.99
RIHTGERPYMCKECGKAFSQNSSK [L24K] | 3.29
RIHTGERPYMCKECGKAFSQNSSI [L24I] | 2.74
RIHTGERPYMCKECGKAFSQNSSN [L24N] | 3.37
RIHTGERPYMCKECGKAFSQNSSF [L24F] | 2.48
RIHTGERPYMCKECGKAFSQNSSQ [L24Q] | 3.21
RIHTGERPYMCKECGKAFSQNSVL [S23V] | 2.24
RIHTGERPYMCKECGKAFSQNSWL [S23W] | 1.94
RIHTGERPYMCKECGKAFSQNSNL [S23N] | 2.44
RIHTGERPYMCKECGKAFSQNSPL [S23P] | 2.48
RIHTGERPYMCKECGKAFSQNSRL [S23R] | 1.66
RIHTGERPYMCKECGKAFSQNSQL [S23Q] | 2.58
RIHTGERPYMCKECGKAFSQNSTL [S23T] | 2.27
RIHTGERPYMCKECGKAFSQNSYL [S23Y] | 2.03

Variants of: B2
Test: as above
Conditions: c terminus: a fixed tail appended

Variant | protein stability index
TYLVGLFVDFFVRLFTQLKFGVVQ [G2Y] | 2.9
TKLVGLFVDFFVRLFTQLKFGVVQ [G2K] | 2.53
TQLVGLFVDFFVRLFTQLKFGVVQ [G2Q] | 1.73
THLVGLFVDFFVRLFTQLKFGVVQ [G2H] | 2.34
TDLVGLFVDFFVRLFTQLKFGVVQ [G2D] | 1.64
TTLVGLFVDFFVRLFTQLKFGVVQ [G2T] | 1.81
TWLVGLFVDFFVRLFTQLKFGVVQ [G2W] | 2.22
TILVGLFVDFFVRLFTQLKFGVVQ [G2I] | 2.36
TPLVGLFVDFFVRLFTQLKFGVVQ [G2P] | 1.67
TSLVGLFVDFFVRLFTQLKFGVVQ [G2S] | 1.96
TLLVGLFVDFFVRLFTQLKFGVVQ [G2L] | 3.27
TMLVGLFVDFFVRLFTQLKFGVVQ [G2M] | 2.66
TELVGLFVDFFVRLFTQLKFGVVQ [G2E] | 1.67
TRLVGLFVDFFVRLFTQLKFGVVQ [G2R] | 2.78
TCLVGLFVDFFVRLFTQLKFGVVQ [G2C] | 2.77
TNLVGLFVDFFVRLFTQLKFGVVQ [G2N] | 1.84
TFLVGLFVDFFVRLFTQLKFGVVQ [G2F] | 3.79
TGLVGLDVDFFVRLFTQLKFGVVQ [F7D] | 3.18
TGLVGLHVDFFVRLFTQLKFGVVQ [F7H] | 2.44
TGLVGLVVDFFVRLFTQLKFGVVQ [F7V] | 3.05
TGLVGLGVDFFVRLFTQLKFGVVQ [F7G] | 1.73
TGLVGLQVDFFVRLFTQLKFGVVQ [F7Q] | 2.03
TGLVGLEVDFFVRLFTQLKFGVVQ [F7E] | 4.32

Variant | protein stability index
TGLVGLPVDFFVRLFTQLKFGVVQ [F7P] | 2.28
TGLVGLAVDFFVRLFTQLKFGVVQ [F7A] | 2.38
TGLVGLMVDFFVRLFTQLKFGVVQ [F7M] | 2.56
TGLVGLWVDFFVRLFTQLKFGVVQ [F7W] | 2.28
TGLVGLIVDFFVRLFTQLKFGVVQ [F7I] | 2.57
TGLVGLTVDFFVRLFTQLKFGVVQ [F7T] | 2.35
TGLVGLLVDFFVRLFTQLKFGVVQ [F7L] | 2.77
TGLVGLSVDFFVRLFTQLKFGVVQ [F7S] | 1.82
TGLVGLRVDFFVRLFTQLKFGVVQ [F7R] | 1.69
TGLVGLCVDFFVRLFTQLKFGVVQ [F7C] | 2.89
TGLVGLKVDFFVRLFTQLKFGVVQ [F7K] | 1.78
TGLVGLNVDFFVRLFTQLKFGVVQ [F7N] | 1.84
TGLVGLYVDFFVRLFTQLKFGVVQ [F7Y] | 2.54
TGLNGLFVDFFVRLFTQLKFGVVQ [V4N] | 2.39
TGLYGLFVDFFVRLFTQLKFGVVQ [V4Y] | 2.07
TGLCGLFVDFFVRLFTQLKFGVVQ [V4C] | 2.36
TGLWGLFVDFFVRLFTQLKFGVVQ [V4W] | 3.63
TGLTGLFVDFFVRLFTQLKFGVVQ [V4T] | 2.38
TGLMGLFVDFFVRLFTQLKFGVVQ [V4M] | 2.49
TGLPGLFVDFFVRLFTQLKFGVVQ [V4P] | 2.05
TGLAGLFVDFFVRLFTQLKFGVVQ [V4A] | 1.97
TGLSGLFVDFFVRLFTQLKFGVVQ [V4S] | 2.63
TGLRGLFVDFFVRLFTQLKFGVVQ [V4R] | 2.19

Variant | protein stability index
TGLLGLFVDFFVRLFTQLKFGVVQ [V4L] | 2.33
TGLGGLFVDFFVRLFTQLKFGVVQ [V4G] | 1.66
TGLHGLFVDFFVRLFTQLKFGVVQ [V4H] | 2.28
TGLQGLFVDFFVRLFTQLKFGVVQ [V4Q] | 2.79
TGLIGLFVDFFVRLFTQLKFGVVQ [V4I] | 2.56
TGLKGLFVDFFVRLFTQLKFGVVQ [V4K] | 2.16
TGLDGLFVDFFVRLFTQLKFGVVQ [V4D] | 4.33
TGLFGLFVDFFVRLFTQLKFGVVQ [V4F] | 2.93
TGLVGLFVSFFVRLFTQLKFGVVQ [D9S] | 2.15
TGLVGLFVKFFVRLFTQLKFGVVQ [D9K] | 3.08
TGLVGLFVCFFVRLFTQLKFGVVQ [D9C] | 1.25
TGLVGLFVNFFVRLFTQLKFGVVQ [D9N] | 2.87
TGLVGLFVIFFVRLFTQLKFGVVQ [D9I] | 2.68
TGLVGLFVHFFVRLFTQLKFGVVQ [D9H] | 2.61
TGLVGLFVFFFVRLFTQLKFGVVQ [D9F] | 2.17
TGLVGLFVEFFVRLFTQLKFGVVQ [D9E] | 2.12
TGLVGLFVPFFVRLFTQLKFGVVQ [D9P] | 1.92
TGLVGLFVRFFVRLFTQLKFGVVQ [D9R] | 3.51
TGLVGLFVGFFVRLFTQLKFGVVQ [D9G] | 2.47
TGLVGLFVAFFVRLFTQLKFGVVQ [D9A] | 1.59
TGLVGLFVQFFVRLFTQLKFGVVQ [D9Q] | 2.24
